Literature values, collected in paper PMC6133022.

Molecular target: alpha-bungarotoxin (Bungarus multicinctus) (UniProt P60615)
Chain of UniProt P60615 (P60615 22-95): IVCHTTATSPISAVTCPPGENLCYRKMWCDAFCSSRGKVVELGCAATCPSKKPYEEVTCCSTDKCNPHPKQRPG

## alpha7-nAChR (from UniProt P36544)
  Kd: 0.094 nM
